{"source": "paper PMC12623744", "about": "(Scientific Reports, 2025)", "key": {"HVEM/LIGHT complex": {"tested_on": "HVEM/LIGHT complex", "test": "Competitive ELISA, inhibition of HVEM/LIGHT complex formation", "assay_type": "biochemical, human", "conditions": "across all tested concentrations (50, 12.5, 3.125 µM)", "experimental": "To assess the inhibitory properties of the peptides the ELISA was conducted. Based on the obtained results, it can be concluded that the inhibitory properties of the peptides are strongly correlated with their affinity to HVEM as determined by theoretical methods, as well as with those measured by SpS.\nELISA was conducted using transparent polystyrene 96-well plates (Brand, Wertheim, Germany). Wells were coated with HVEM-His protein at concentration 6 µg/mL dissolved in PBS-T (100 µL per well) and incubated overnight at 4 °C. Unbound sites on the wells by HVEM were blocked with 5% bovine serum albumin (BSA) in PBS-T (200 µL per well). Peptides at three concentrations 50 µM, 12.5 µM, and 3.125 µM dissolved in PBS-T were added and incubated (200 µL per well). […] In the next step horseradish peroxidase (HRP)-conjugated goat antibody (Bio-Rad, Hercules, USA) at dilution 1:3000 in PBS-T (100µL per well) was applied. After each step, wells were washed five times with 200 µL of PBS-T. Incubations were carried out at 37 °C for 2 h, except for the antibody, which was incubated for 1 h. Finally, 200 µL of TMB substrate (Thermo Fisher Scientific,Waltham, MA, USA) was added, and after 15 min of incubation in the dark, absorbance was measured at 492 nm and 650 nm using an Infinite M200 Pro reader (Tecan, Switzerland). The negative control consisted of PBS-T buffer without peptides, while the positive control was mouse anti-human HVEM antibodies (1 µg/well, Bio-Rad, Hercules, CA, USA; #MCA6072GA). Each experiment was performed in three biological replicates, each consisting of three technical replicates and data were analyzed using one-way ANOVA with Dunnett’s post-hoc test in GraphPad Prism (San Diego, USA)."}, "HVEM-His protein": {"molecular_target": "T1, HVEM-His protein (UniProt Q92956 39-202, labelled with RED-tris-NTA 2nd Generation dye on the His tag (spectral shift only))", "T1 construct": "Herpes virus entry mediator (HVEM); No catalogue number printed; also called herpes virus entry mediator; source: bought: ACROBiosystems", "T1 sequence (looked up)": "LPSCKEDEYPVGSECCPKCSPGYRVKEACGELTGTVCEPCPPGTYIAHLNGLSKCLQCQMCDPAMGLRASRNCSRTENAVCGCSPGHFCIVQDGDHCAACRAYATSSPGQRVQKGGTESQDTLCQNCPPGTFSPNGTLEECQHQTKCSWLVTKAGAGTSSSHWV", "test": "spectral shift (SpS); Monolith X; HVEM-His labelled with His-Tag Labeling Kit RED-tris-NTA 2nd Generation, final 50 nM; peptides 2 µM to 6.1 pM; PBS-T (0.05% Tween-20, 0.3 M NaCl, pH 7.4); fluorescence ratio 670/650 nm; 25 °C; apparent Kd (peptides aggregated at higher concentrations)", "conditions": "both partners purified"}}, "note": "Positions of bridges follow the written chain, without caps; N, C: chain ends. Non-standard residues stand in square brackets, D forms with d. Residues, ends and D or L forms follow the SMILES beside them. Nle = CCCC[C@H](N)C(=O)O"}
{"molecule": "CC[C@H](C)[C@H](NC(=O)[C@@H](NC(C)=O)[C@@H](C)O)C(=O)N[C@H]1CSSC[C@@H](C(=O)N[C@@H](CCC(N)=O)C(=O)N[C@@H](CO)C(N)=O)NC(=O)[C@H](CO)NC(=O)[C@H](C(C)C)NC(=O)[C@H](CC(C)C)NC(=O)[C@H](CC(C)C)NC(=O)[C@H](CCC(=O)O)NC(=O)[C@H](CC(C)C)NC(=O)[C@H](CCC(=O)O)NC(=O)[C@H](CCC(=O)O)NC(=O)[C@@H]2CCCN2C(=O)[C@H](Cc2ccc(O)cc2)NC(=O)[C@H](CCCNC(=N)N)NC(=O)[C@@H]2CCCN2C(=O)[C@H]([C@@H](C)O)NC(=O)[C@H](CCCNC(=N)N)NC(=O)[C@H](CCCCN)NC(=O)[C@H](Cc2ccc(O)cc2)NC(=O)[C@H](CC(C)C)NC(=O)CNC(=O)[C@H](Cc2c[nH]cn2)NC1=O", "note": "[light4] (Ac-TICHGLYKRTPRYPEELELLVSCQS-NH2; disulfide 3-23)", "values": [{"measurement": "inhibition of HVEM/LIGHT complex formation", "setting": "HVEM/LIGHT complex", "value": "below 10%"}]}
{"molecule": "Ac-TICHGLYKRTPRYPEELELLVSCQS-NH2 (disulfide 3-23; SMILES CC[C@H](C)[C@H](NC(=O)[C@@H](NC(C)=O)[C@@H](C)O)C(=O)N[C@H]1CSSC[C@@H](C(=O)N[C@@H](CCC(N)=O)C(=O)N[C@@H](CO)C(N)=O)NC(=O)[C@H](CO)NC(=O)[C@H](C(C)C)NC(=O)[C@H](CC(C)C)NC(=O)[C@H](CC(C)C)NC(=O)[C@H](CCC(=O)O)NC(=O)[C@H](CC(C)C)NC(=O)[C@H](CCC(=O)O)NC(=O)[C@H](CCC(=O)O)NC(=O)[C@@H]2CCCN2C(=O)[C@H](Cc2ccc(O)cc2)NC(=O)[C@H](CCCNC(=N)N)NC(=O)[C@@H]2CCCN2C(=O)[C@H]([C@@H](C)O)NC(=O)[C@H](CCCNC(=N)N)NC(=O)[C@H](CCCCN)NC(=O)[C@H](Cc2ccc(O)cc2)NC(=O)[C@H](CC(C)C)NC(=O)CNC(=O)[C@H](Cc2c[nH]cn2)NC1=O, Residues 161-185 of LIGHT with two residues substituted by cysteines for a disulfide bond; also called peptide 4; source: synthetic peptide (SPPS, RP-HPLC; disulfide bond formed by air oxidation))", "note": "[light4]", "values": [{"measurement": "Kd", "setting": "HVEM-His protein", "value": 1720, "unit": "nM"}]}
{"molecule": "Ac-EAGEEVVCRVLDERLVRLRDGTRSYCGAF[Nle]V-NH2 (disulfide 8-26; SMILES CCCC[C@H](NC(=O)[C@H](Cc1ccccc1)NC(=O)[C@H](C)NC(=O)CNC(=O)[C@@H]1CSSC[C@H](NC(=O)[C@@H](NC(=O)[C@@H](NC(=O)[C@H](CCC(=O)O)NC(=O)[C@H](CCC(=O)O)NC(=O)CNC(=O)[C@H](C)NC(=O)[C@H](CCC(=O)O)NC(C)=O)C(C)C)C(C)C)C(=O)N[C@@H](CCCNC(=N)N)C(=O)N[C@@H](C(C)C)C(=O)N[C@@H](CC(C)C)C(=O)N[C@@H](CC(=O)O)C(=O)N[C@@H](CCC(=O)O)C(=O)N[C@@H](CCCNC(=N)N)C(=O)N[C@@H](CC(C)C)C(=O)N[C@@H](C(C)C)C(=O)N[C@@H](CCCNC(=N)N)C(=O)N[C@@H](CC(C)C)C(=O)N[C@@H](CCCNC(=N)N)C(=O)N[C@@H](CC(=O)O)C(=O)NCC(=O)N[C@@H]([C@@H](C)O)C(=O)N[C@@H](CCCNC(=N)N)C(=O)N[C@@H](CO)C(=O)N[C@@H](Cc2ccc(O)cc2)C(=O)N1)C(=O)N[C@H](C(N)=O)C(C)C, Fragment 210-240 of LIGHT with two residues substituted by cysteines for a disulfide bond; the synthesized peptide has norleucine there; also called peptide 1; source: synthetic peptide (SPPS, RP-HPLC; disulfide bond formed by air oxidation))", "note": "[light1]", "values": [{"measurement": "Kd", "setting": "HVEM-His protein", "value": 1680, "unit": "nM"}]}
{"molecule": "Ac-TCTHGLYKRTPRYPEELELLVSQCS-NH2 (disulfide 2-24; SMILES CC(=O)N[C@H](C(=O)N[C@H]1CSSC[C@@H](C(=O)N[C@@H](CO)C(N)=O)NC(=O)[C@H](CCC(N)=O)NC(=O)[C@H](CO)NC(=O)[C@H](C(C)C)NC(=O)[C@H](CC(C)C)NC(=O)[C@H](CC(C)C)NC(=O)[C@H](CCC(=O)O)NC(=O)[C@H](CC(C)C)NC(=O)[C@H](CCC(=O)O)NC(=O)[C@H](CCC(=O)O)NC(=O)[C@@H]2CCCN2C(=O)[C@H](Cc2ccc(O)cc2)NC(=O)[C@H](CCCNC(=N)N)NC(=O)[C@@H]2CCCN2C(=O)[C@H]([C@@H](C)O)NC(=O)[C@H](CCCNC(=N)N)NC(=O)[C@H](CCCCN)NC(=O)[C@H](Cc2ccc(O)cc2)NC(=O)[C@H](CC(C)C)NC(=O)CNC(=O)[C@H](Cc2c[nH]cn2)NC(=O)[C@H]([C@@H](C)O)NC1=O)[C@@H](C)O, Residues 161-185 of LIGHT with two residues substituted by cysteines for a disulfide bond; also called peptide 3; source: synthetic peptide (SPPS, RP-HPLC; disulfide bond formed by air oxidation))", "note": "[light3]", "values": [{"measurement": "Kd", "setting": "HVEM-His protein", "value": 580, "unit": "nM"}]}
{"molecule": "Ac-TCTHGLYKRTPRYPEELLLLVSQCS-NH2 (disulfide 2-24; SMILES CC(=O)N[C@H](C(=O)N[C@H]1CSSC[C@@H](C(=O)N[C@@H](CO)C(N)=O)NC(=O)[C@H](CCC(N)=O)NC(=O)[C@H](CO)NC(=O)[C@H](C(C)C)NC(=O)[C@H](CC(C)C)NC(=O)[C@H](CC(C)C)NC(=O)[C@H](CC(C)C)NC(=O)[C@H](CC(C)C)NC(=O)[C@H](CCC(=O)O)NC(=O)[C@H](CCC(=O)O)NC(=O)[C@@H]2CCCN2C(=O)[C@H](Cc2ccc(O)cc2)NC(=O)[C@H](CCCNC(=N)N)NC(=O)[C@@H]2CCCN2C(=O)[C@H]([C@@H](C)O)NC(=O)[C@H](CCCNC(=N)N)NC(=O)[C@H](CCCCN)NC(=O)[C@H](Cc2ccc(O)cc2)NC(=O)[C@H](CC(C)C)NC(=O)CNC(=O)[C@H](Cc2c[nH]cn2)NC(=O)[C@H]([C@@H](C)O)NC1=O)[C@@H](C)O, Analogue of light3 (residues 161-185 of LIGHT with two cysteines for a disulfide bond) in which glutamic acid 178 was replaced by leucine; source: synthetic peptide (SPPS, RP-HPLC; disulfide bond formed by air oxidation))", "note": "[light3_E178L]", "values": [{"measurement": "Kd", "setting": "HVEM-His protein", "value": 710, "unit": "nM"}]}
{"molecule": "Ac-ECGEEVVVRVLDERLVRLRDGTRSYFGAFCV-NH2 (disulfide 2-30; SMILES CC(=O)N[C@@H](CCC(=O)O)C(=O)N[C@H]1CSSC[C@@H](C(=O)N[C@H](C(N)=O)C(C)C)NC(=O)[C@H](Cc2ccccc2)NC(=O)[C@H](C)NC(=O)CNC(=O)[C@H](Cc2ccccc2)NC(=O)[C@H](Cc2ccc(O)cc2)NC(=O)[C@H](CO)NC(=O)[C@H](CCCNC(=N)N)NC(=O)[C@H]([C@@H](C)O)NC(=O)CNC(=O)[C@H](CC(=O)O)NC(=O)[C@H](CCCNC(=N)N)NC(=O)[C@H](CC(C)C)NC(=O)[C@H](CCCNC(=N)N)NC(=O)[C@H](C(C)C)NC(=O)[C@H](CC(C)C)NC(=O)[C@H](CCCNC(=N)N)NC(=O)[C@H](CCC(=O)O)NC(=O)[C@H](CC(=O)O)NC(=O)[C@H](CC(C)C)NC(=O)[C@H](C(C)C)NC(=O)[C@H](CCCNC(=N)N)NC(=O)[C@H](C(C)C)NC(=O)[C@H](C(C)C)NC(=O)[C@H](C(C)C)NC(=O)[C@H](CCC(=O)O)NC(=O)[C@H](CCC(=O)O)NC(=O)CNC1=O, Fragment 210-240 of LIGHT with two residues substituted by cysteines for a disulfide bond; also called peptide 2; source: synthetic peptide (SPPS, RP-HPLC; disulfide bond formed by air oxidation))", "note": "[light2]", "values": [{"measurement": "Kd", "setting": "HVEM-His protein", "value": 1380, "unit": "nM"}]}
